The supplement of paper PMC10567573

B1: PRPH (parent)
chain: RTFGPPPSLSPGAFSYSSSSRFSS
B2: ADAMTS4 (parent)
chain: SFRKFRYGYNNVVTIPAGATHILV

Variants of: B1
Test: protein stability index of a GFP-peptide fusion (GPS, HEK-293T) (PSI 1-6); higher = more stable
Details: c terminus: a fixed tail appended
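Note: lentivirally expressed fusions sorted by FACS into six bins by GFP to DsRed ratio, PSI derived from sequencing read proportions per bin multiplied by bin number.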

Variant	protein stability index
GTFGPPPSLSPGAFSYSSSSRFSS [R1G]	3.25
ETFGPPPSLSPGAFSYSSSSRFSS [R1E]	3.09
DTFGPPPSLSPGAFSYSSSSRFSS [R1D]	3.29
QTFGPPPSLSPGAFSYSSSSRFSS [R1Q]	3.62
HTFGPPPSLSPGAFSYSSSSRFSS [R1H]	3.24
MTFGPPPSLSPGAFSYSSSSRFSS [R1M]	2.29
NTFGPPPSLSPGAFSYSSSSRFSS [R1N]	3.7
ATFGPPPSLSPGAFSYSSSSRFSS [R1A]	3.18
FTFGPPPSLSPGAFSYSSSSRFSS [R1F]	2.52
CTFGPPPSLSPGAFSYSSSSRFSS [R1C]	2.59
KTFGPPPSLSPGAFSYSSSSRFSS [R1K]	2.74
ITFGPPPSLSPGAFSYSSSSRFSS [R1I]	2.41

Variants of: B2
Test: as above
Details: c terminus: a fixed tail appended

Variant	protein stability index
SFRKFRYGYNNVVTSPAGATHILV [I15S]	2.48
SFRKFRYGYNNVVTQPAGATHILV [I15Q]	1.4
SFRKFRYGYNNVVTRPAGATHILV [I15R]	1.44
SFRKFRYGYNNVVTMPAGATHILV [I15M]	2.28
SFRKFRYGYNNVVTTPAGATHILV [I15T]	2.26
SFRKFRYGYNNVVTNPAGATHILV [I15N]	1.57
SFRKFRYGYNNVVTVPAGATHILV [I15V]	1.5
SFRKFRYGYNNVVTWPAGATHILV [I15W]	1.86
SFRKFRYGYNNVVTPPAGATHILV [I15P]	1.52
SFRKFRYGYNNVVTKPAGATHILV [I15K]	2.41
SFRKFRYGYNNVVTHPAGATHILV [I15H]	2.01
SFRKFRYGYNNVVTLPAGATHILV [I15L]	2.3
SFRKFRYGYNNVVTYPAGATHILV [I15Y]	2.11
SFRKFRYGYNNVVTIPRGATHILV [A17R]	2
SFRKFRYGYNNVVTIPDGATHILV [A17D]	1.64
SFRKFRYGYNNVVTIPWGATHILV [A17W]	2.46
SFRKFRYGYNNVVTIPCGATHILV [A17C]	2.36
SFRKFRYGYNNVVTIPNGATHILV [A17N]	1.78
SFRKFRYGYNNVVTIPPGATHILV [A17P]	1.98
SFRKFRYGYNNVVTIPLGATHILV [A17L]	2.31
SFRKFRYGYNNVVTIPQGATHILV [A17Q]	1.33
SFRKFRYGYNNVVTIPFGATHILV [A17F]	1.96
SFRKFRYGYNNVVTIPMGATHILV [A17M]	1.51
SFRKFRYGYNNVVTIPIGATHILV [A17I]	1.86
SFRKFRYGYNNVVTIPSGATHILV [A17S]	1.78
SFRKFRYGYNNVVTIPVGATHILV [A17V]	1.24

Variant	protein stability index
SFRKFRYGYNNVVTIPYGATHILV [A17Y]	1.6
SFRKFRYGYNNVVTIPGGATHILV [A17G]	1.95
SFRKFRYGYNNVVTIPKGATHILV [A17K]	1.57
SFRKFRYGYNNVVTIPTGATHILV [A17T]	1.97
SFRKFRYGYNNVVTIPHGATHILV [A17H]	1.78
SFRKFRYGYNNVVTIPEGATHILV [A17E]	1.61
SFRKFRYGYNNVVTIPAGATHILE [V24E]	2.34
SFRKFRYGYNNVVTIPAGATHILY [V24Y]	2.57
SFRKFRYGYNNVVTIPAGATHILL [V24L]	2.35
SFRKFRYGYNNVVTIPAGATHILT [V24T]	1.44
SFRKFRYGYNNVVTIPAGATHILA [V24A]	1.52
SFRKFRYGYNNVVTIPAGATHILQ [V24Q]	1.75
SFRKFRYGYNNVVTIPAGATHILW [V24W]	1.94
SFRKFRYGYNNVVTIPAGATHILR [V24R]	1.34
SFRKFRYGYNNVVTIPAGATHILN [V24N]	1.66
SFRKFRYGYNNVVTIPAGATHILS [V24S]	1.68
SFRKFRYGYNNVVTIPAGATHILC [V24C]	2.39
SFRKFRYGYNNVVTIPAGATHILF [V24F]	3.25
SFRKFRYGYNNVVTIPAGATHILI [V24I]	2
SFRKFRYGYNNVVTIPAGATHILH [V24H]	1.73
SFRKFRYGYNNVVTIPAGATHILG [V24G]	1.81
SFRKFRYGYNNVVTIPAGATHILD [V24D]	1.93
SFRKFRYGYNNVVTIPAGATHILK [V24K]	1.7
SFRKFRYGYNNVVTIPAGATHILP [V24P]	1.64
SFRKFRYGYNNVVTIPAGATHILM [V24M]	2.12
SFRKFRYGYNNVVTITAGATHILV [P16T]	1.36

Variant	protein stability index
SFRKFRYGYNNVVTIFAGATHILV [P16F]	2.57
SFRKFRYGYNNVVTIKAGATHILV [P16K]	2.19
SFRKFRYGYNNVVTIVAGATHILV [P16V]	1.87
SFRKFRYGYNNVVTIHAGATHILV [P16H]	2.4
SFRKFRYGYNNVVTISAGATHILV [P16S]	2.5
SFRKFRYGYNNVVTIIAGATHILV [P16I]	2.63
SFRKFRYGYNNVVTIRAGATHILV [P16R]	1.76
SFRKFRYGYNNVVTICAGATHILV [P16C]	2.46
SFRKFRYGYNNVVTIDAGATHILV [P16D]	3.51
SFRKFRYGYNNVVTIEAGATHILV [P16E]	2.83
SFRKFRYGYNNVVTIYAGATHILV [P16Y]	2.49
SFRKFRYGYNNVVTIQAGATHILV [P16Q]	2.25
SFRKFRYGYNNVVTIAAGATHILV [P16A]	2.65
SFRKFRYGYNNVVTIWAGATHILV [P16W]	2.05
SFRKFRYGYNNVVTILAGATHILV [P16L]	1.81
SFRKFRYGYNNVVTIMAGATHILV [P16M]	2.59
SFRKFRYGYNNVVTIGAGATHILV [P16G]	2.36
SFRKFRYGYNNVVTIPAGPTHILV [A19P]	2.17
SFRKFRYGYNNVVTIPAGLTHILV [A19L]	3.23
SFRKFRYGYNNVVTIPAGKTHILV [A19K]	3
SFRKFRYGYNNVVTIPAGCTHILV [A19C]	2.13
SFRKFRYGYNNVVTIPAGHTHILV [A19H]	1.96
SFRKFRYGYNNVVTIPAGGTHILV [A19G]	1.22
SFRKFRYGYNNVVTIPAGETHILV [A19E]	3.97
SFRKFRYGYNNVVTIPAGVTHILV [A19V]	1.84
SFRKFRYGYNNVVTIPAGQTHILV [A19Q]	1.88

Variant	protein stability index
SFRKFRYGYNNVVTIPAGTTHILV [A19T]	1.36
SFRKFRYGYNNVVTIPAGYTHILV [A19Y]	3.44
SFRKFRYGYNNVVTIPAGNTHILV [A19N]	2.17
SFRKFRYGYNNVVTIPAGDTHILV [A19D]	3.22
SFRKFRYGYNNVVTIPAGFTHILV [A19F]	3.91
SFRKFRYGYNNVVTIPAGRTHILV [A19R]	2.67
SFRKFRYGYNNVVTIPAGWTHILV [A19W]	2.72
SFRKFRYGYNNVVTIPAGATHIIV [L23I]	3.28
SFRKFRYGYNNVVTIPAGATHIWV [L23W]	2.15
SFRKFRYGYNNVVTIPAGATHICV [L23C]	2.19
SFRKFRYGYNNVVTIPAGATHIMV [L23M]	2.43
SFRKFRYGYNNVVTIPAGATHIDV [L23D]	1.78
SFRKFRYGYNNVVTIPAGATHISV [L23S]	2.52
SFRKFRYGYNNVVTIPAGATHIGV [L23G]	2.1
SFRKFRYGYNNVVTIPAGATHIQV [L23Q]	1.37
SFRKFRYGYNNVVTIPAGATHIKV [L23K]	2
SFRKFRYGYNNVVTIPAGATHITV [L23T]	3.08
SFRKFRYGYNNVVTIPAGATHIRV [L23R]	1.84
SFRKFRYGYNNVVTIPAGATHINV [L23N]	1.75
SFRKFRYGYNNVVTIPAGATHIEV [L23E]	1.32
SFRKFRYGYNNVVTIPAGATHIYV [L23Y]	2.41
SFRKFRYGYNNVVTIPAGATHIFV [L23F]	2.76
SFRKFRYGYNNVVTIPAGATHIAV [L23A]	2.4
SFRKFRYGYNNVVTIPAGATHIVV [L23V]	2
SFRKFRYGYNNVVTIPAGATHIHV [L23H]	2.91
SFRKFRYGYNNVVTIPAGATHIPV [L23P]	2.29

Variant	protein stability index
SFRKFRYGYNNVVTIPAFATHILV [G18F]	2.3
SFRKFRYGYNNVVTIPANATHILV [G18N]	1.27
SFRKFRYGYNNVVTIPASATHILV [G18S]	2.58
SFRKFRYGYNNVVTIPAYATHILV [G18Y]	1.64
SFRKFRYGYNNVVTIPARATHILV [G18R]	1.85
SFRKFRYGYNNVVTIPAVATHILV [G18V]	1.63
SFRKFRYGYNNVVTIPACATHILV [G18C]	1.73
SFRKFRYGYNNVVTIPATATHILV [G18T]	2.71
SFRKFRYGYNNVVTIPAMATHILV [G18M]	1.54
SFRKFRYGYNNVVTIPAEATHILV [G18E]	2.63
SFRKFRYGYNNVVTIPAHATHILV [G18H]	1.71
SFRKFRYGYNNVVTIPAAATHILV [G18A]	1.72
SFRKFRYGYNNVVTIPAQATHILV [G18Q]	2.88
SFRKFRYGYNNVVTIPAPATHILV [G18P]	2.06
SFRKFRYGYNNVVTIPAWATHILV [G18W]	1.9
SFRKFRYGYNNVVTIPAKATHILV [G18K]	2.41
SFRKFRYGYNNVVTIPAIATHILV [G18I]	1.62
SFRKFRYGYNNVVTIPALATHILV [G18L]	2
SFRKFRYGYNNVVTIPADATHILV [G18D]	2.71
SFRKFRYGYNNVVTIPAGAPHILV [T20P]	3.21
SFRKFRYGYNNVVTIPAGADHILV [T20D]	1.54
SFRKFRYGYNNVVTIPAGANHILV [T20N]	1.85
SFRKFRYGYNNVVTIPAGAEHILV [T20E]	2.56
SFRKFRYGYNNVVTIPAGAKHILV [T20K]	2.24
SFRKFRYGYNNVVTIPAGALHILV [T20L]	2.9
SFRKFRYGYNNVVTIPAGAIHILV [T20I]	2.77

Variant	protein stability index
SFRKFRYGYNNVVTIPAGAVHILV [T20V]	2.55
SFRKFRYGYNNVVTIPAGAYHILV [T20Y]	1.69
SFRKFRYGYNNVVTIPAGAGHILV [T20G]	1.49
SFRKFRYGYNNVVTIPAGAFHILV [T20F]	3.2
SFRKFRYGYNNVVTIPAGAAHILV [T20A]	2.32
SFRKFRYGYNNVVTIPAGAQHILV [T20Q]	2.19
SFRKFRYGYNNVVTIPAGAWHILV [T20W]	2.38
SFRKFRYGYNNVVTIPAGAHHILV [T20H]	1.63
SFRKFRYGYNNVVTIPAGAMHILV [T20M]	2.51
SFRKFRYGYNNVVTIPAGACHILV [T20C]	2.86
SFRKFRYGYNNVVTIPAGATDILV [H21D]	1.66
SFRKFRYGYNNVVTIPAGATYILV [H21Y]	3.3
SFRKFRYGYNNVVTIPAGATNILV [H21N]	2.65
SFRKFRYGYNNVVTIPAGATMILV [H21M]	2.12
SFRKFRYGYNNVVTIPAGATIILV [H21I]	2.4
SFRKFRYGYNNVVTIPAGATCILV [H21C]	2.43
SFRKFRYGYNNVVTIPAGATAILV [H21A]	1.3
SFRKFRYGYNNVVTIPAGATEILV [H21E]	3.28
SFRKFRYGYNNVVTIPAGATPILV [H21P]	1.28
SFRKFRYGYNNVVTIPAGATVILV [H21V]	2.02
SFRKFRYGYNNVVTIPAGATFILV [H21F]	3.18
SFRKFRYGYNNVVTIPAGATRILV [H21R]	2.32
SFRKFRYGYNNVVTIPAGATSILV [H21S]	2.3
SFRKFRYGYNNVVTIPAGATTILV [H21T]	3.43
SFRKFRYGYNNVVTIPAGATKILV [H21K]	2.59
SFRKFRYGYNNVVTIPAGATQILV [H21Q]	2.85

Variant	protein stability index
SFRKFRYGYNNVVTIPAGATGILV [H21G]	2.48
SFRKFRYGYNNVVTIPAGATHVLV [I22V]	1.79
SFRKFRYGYNNVVTIPAGATHQLV [I22Q]	2.31
SFRKFRYGYNNVVTIPAGATHTLV [I22T]	1.97
SFRKFRYGYNNVVTIPAGATHRLV [I22R]	1.88
SFRKFRYGYNNVVTIPAGATHPLV [I22P]	2.59
SFRKFRYGYNNVVTIPAGATHKLV [I22K]	2.37
SFRKFRYGYNNVVTIPAGATHNLV [I22N]	1.83
SFRKFRYGYNNVVTIPAGATHFLV [I22F]	2.58
SFRKFRYGYNNVVTIPAGATHELV [I22E]	2.53
SFRKFRYGYNNVVTIPAGATHMLV [I22M]	1.9
SFRKFRYGYNNVVTIPAGATHLLV [I22L]	2.51
SFRKFRYGYNNVVTIPAGATHYLV [I22Y]	1.92
SFRKFRYGYNNVVTIPAGATHALV [I22A]	1.74
SFRKFRYGYNNVVTIPAGATHSLV [I22S]	2.36
SFRKFRYGYNNVVTIPAGATHCLV [I22C]	2.42
SFRKFRYGYNNVVTIPAGATHWLV [I22W]	1.83
SFRKFRYGYNNVVTIPAGATHDLV [I22D]	2.24
SFRKFRYGYNNVVTIPAGATHHLV [I22H]	1.8
SFRKFRYGYNNVVTIPAGATHGLV [I22G]	1.93
